Experiment: soluble on expression in E. coli; label from the status in PepcDB or PDB records

| Sequence | soluble on expression in E. coli |
| --- | --- |
| MGSDKIHHHHHHMTDAPGPLEPLGSTGGPILDRPAFERLTTTHRRALKLHCYRMMGSLHEADDLVQETFLKAWRGRAQFDGRGSPRGWLYTIATNACLNAIKARSSAHRILEEPARPPSEGRAAAGLAAELSWLEPYPDAELPDLIDGEPGPDARYETSEAVRLAFVAAIQLLPPRQRASLLLCDVLGWSALETAQLLGGSTASVNSALQRARATLGERYPQGRPQQRSQPNPEEGVLLERYISAWQAANLDGFIALLREDATYHMPPWRDWYRGRPAIHGFFKTVWGNFAGYRAVATRANGQPAVAIYARRHQEPEWRAQSLHVIEPAYGAIASLTVYVAPLGPGLFAAFGLPPVWSGPQA | not soluble |
| MGSDKIHHHHHHMTDHVIAHAFSYRHASRRKPALVDLTLKISRGERVLLLGASGSGKSTLLAAIAGVLADEDGEHSGELQVSGTPGMVLQDPDSQVISSRVGDDVAFGCENMCVPRDQIWPRVTQALAQVGLDLPLDHPTSELSGGQKQRLALAGVIAMGADIVLLDEPTANLDPDGVREVVSNISRAVETTGATMIVVEHRVSTWLDHVDRIIALGPDSRVLADGPARDVIAKHGRELSELGIWVPENDPQLPAALTPTHSDTAIHARELAVGWNQPLGTYGFDIPAGASTVITGANGKGKSTLLLTLAGLLPAHSGRVEVAHNIARGLHTDPLRWKSKELSSRFGFVFQDPEHQFVAATVREEMRVGLHDHNHLARADLLLERLRLDHLAEANPFTLSGGQKRRLSVATILVNTPDVVFLDEPTFGQDRTTFIELVTLLRELTDAGTTVVSITHDELYRRCLGDKEIAL | not soluble |
| MGSDKIHHHHHHMTDKLSPRGRPLYLGSRGRHTRFSRIADSVADSFNLSKELTTATLLAAVNSALRGKASITINQDWDEPVNAFFLVCAESGGGKSPSNNFFKQPQLNFQTEWNEQNKNLYLRASVDKKYFAQKLKKHTQQAAELDYGNPKALEQYHAETTRLTEAYEKALRCQPLELFVDDVTNKSLIEAMSRQDGRIAIMEPEVSAFRHIVRAKEVSPILDTILKSFSGERIQLNRAGEPALTIERPILALNIMVQPPIMMQLAKNKAIQGRGILGRFFVTIVEKPRYSRFRHDPIEVPPEVRFEYQDTIYKILTTVEKSKDLLSFSLSDEATEAWLAVKDDVESSIPHNPPPGYGEWKAKAGKHLLHLACLVHIFEHQASNTIIDKRSFELAELLFNFFDKNMWSMLRFMYPEIDFLVAVKALSSGKLYNMGEFSARDMQRALGTYNSTQIAQGIDWLLDNRAIDPIEHRHIENSAKTTMHVGRKKSPTYKIIDAEWHYLRDELL | not soluble |
| MGSDKIHHHHHHMTDLAPILAEADKALPQSLDRLFDLVRIASISTDPAYKADCRKAAEWLAQELKGLGFNASVRDTPGHPMVVGHHDADRPDAPHVLFYGHYDVQPVDPLDLWENDPFEPAIKEIEPGRKVITGRGTSDDKGQLMTFVEACRAYKAVHGGLPIKITILFEGEEESGSPSLKPFLAANEDELKCDFALVCDTGMWDRETPAIAAALRGLVGEEVTVTAADRDLHSGLFGGAAANPIHILAKVLADLHDETGRVTIDGFYEGVEETPVNIKASWEKLGRTADKFLNDVGLSIPSGETGRSVLELTWARPTAEVNGITGGYTGEGFKTVIASKASAKVSFRLVGEQDPAKIRENFRAFVKARIPGDCSVEFHEHGASPAIQLPYDSPFLTKAKSALSDEWPKPAEVIGMGGSIPIVGDFQTMLGMDSLLVGFGLVDDRIHSPNEKYELESFHKGIRSWIRILDALAH | not soluble |
| MGSDKIHHHHHHMTDLIYNDPDFVQFYDIENQDGRADFDYCVRLARDGGSVLDLGCGTGQLAAEMAQGCNVTGVDPASAMLDVARRRTGGDKVDWVVADARTVRLGRRFDLVLLTGHVFQVFLTDEDQRAVLRTIAEHLGPGGRFIFDTRNPAVEAWLEWTPQRSERMVEHPSLGTVRAWYDADWDAASAVVTYSTFYEIPGGRPILGAESKIAFPKKQDLAGMLDDAGLLVEQWLGDWQGEPYADTSPEIIPIGRLR | not soluble |
| MGSDKIHHHHHHMTDSKCYAAIDIGSNAVRLLIKKVKNNENLANKRLSKVMLLRVPLRLGFDVFSLGEVSDAKVMKLRRLMKAFRQLMKIYEVINYRACATSAMRDAQNGKSVIKKVWKDTGINIEVINGQEEARMIYNNHIECLEDRAGNYIYVDVGGGSTEINFLINGELVQSLSYNIGTVRMLSNSVREGSWEQMKSDLTRLTADFQGVNIIGSGGNINKLYRLADKKDKKQSRLPITSLQELYDKLKVLTLEQRMEEFNLKTDRADVIVPAAGIFLIIAGIVKAEYIHVPVIGLADGIIDNLYAIDLKTE | not soluble |
| MGSDKIHHHHHHMTEAAEAGNRGFEDYYVNIGFTPDRLVSMLSLTGLSSVHSVVAFYDDRPAGFILNGIRMIGGKQVAWNGGTAVVPELRRQGIGQKLMAATVECYEEQGVELATLEAFRINERAIALYETFGYHIVDQLCFLQHIGALETSFRSKSVGENDYRVARGTAHDVRLLSFYQHTAPWRTQWFALRGGQSILVKDALNHTIGYALYERVFDGEGSLASIVLYQCEAAPGRDDADEIVREALDALFAPHDEPCKRTTFNMPRANERVVRILQEAGFTDAHTADGIPFEQVYMVRKGKDDR | not soluble |
| MGSDKIHHHHHHMTEGMNAGLAMPPAALETSGGANQVGVRAYNERLVMSLVRRHGSLSKAEIARRSGLSAQTVTVIMRVLEREKLLVRGEPVRGRVGQPSVPMRLNPDAVYSFGVKIGRRSANLVLMDFVGTIRHEVRRTYPYPMPGLLLDFIVGGISDIEGRLSVAERARIAGVGIAAPFELWSWAEETGAPSEEMDVWRETDLKADVAARIGYPVFIQNDATSACAAELVFGVGPHYPDFVYFFLGSFVGGGIVLNSSLFSGRTGTAGAVGPLPVQRRDGKTVQLLKIASIFVLENLLRDYGQDSQSLWYSPSDWVDYGEPLEIWIRDTAAALAQAIVAAASIIDFSAAVIDGGFPQWVRQRLVVAIQEAARDLDLQGVLMPEIVEGAVGHQARSVGGASLPLFSRYLLDQNVLFKELL | not soluble |
| MGSDKIHHHHHHMTELHREAFDYAPNMRRLRAVIAVAEAGSVMRAAEALHLSQPAVTRAVRDLEKELGLALFERHRSGMLCTTAGKIVLHRFRRALQQLIEAETALARLHPEGNFERLPQRLSHRQLTVLVAVADLHNEPLAAKRLGLTQPAVSGNLRDLERLLGIALFLRTQRGMLATDGGAVLIRHAKMALRELSLVSDDLSAWQGEVRGRVVIGTLPLSSSLLVPHAVDALLRELPGLNVTIIEGTYDALFESLRHGEIDILIGALRQAGTSEDTHQQRLFHDRLAVAARQGHPLMKHAALQLSDLLDAQWIAPRQGTPARVSFEQEFRSAGLQPPSVVVESGNLSTIRTLLLDSDRVTLVSPHQVFFEVQSGQLALLPIKLTGTLRPIGITTRADDSPTQALKVLKDILLTLGERMADPSSATRA | not soluble |
| MGSDKIHHHHHHMTELLARNADCIVWLARYMERAENLARILGVAETFARDRAGRNWLAVVQINADEERFFARHRVADARTVPHFYILDPDNPNSILSSIKAARENARTLRPMISIEMWRQINRMNTWMGGLSDNAVAPANLAALCEEIKEACQLHVGITEGTFYRDQAHYFYHLGKSIERADQTTRLLDIKYHTLLPRPEDVGSALDISHWNALLKAVAGYQASRRVLAGKITPRSVAAFLLFSDSFPRSVILCVRQMDWLMTQLRTRYHLRGGVKALELLDGLRAALTDHDIDHVIDHGLHEFIDWVQSQLMAIFAEIQDSFCVTRQPSQSQSQ | not soluble |
| MGSDKIHHHHHHMTERTLRGQVAVVGVGESEYYRAGHAPDPEFRLLLKAVLAACRDADIDPADIDGFASFADDRNDAVRIATALGVKRLRSTTMQWGGGGGGCAAAVANGAAAIMSGMAQCVLVYRGLAQGQFGRFGQAAPRASISGEMAYQMPYGVLAPPQKFAMKVQRFMHEHGVRREALRAIALASYQHAQANPRAVMHGKPLTAEAYDASRWIVEPFRLFDCCMENDGAGALLLVAAERAKDFPHRPVYLLGAASGGDWRAAASPHNAPHYASANYSGVSGDLYRMARVSPADVGVVQSYENFTGGVAMALSEHGFFHPDEANDFLTPENLVAPSGKLPLNTSGGNLGECYVHGFELVIEAARQVRGESTSQAARHDVALVIGGPMVTPASSLLFGSAATL | not soluble |

Source: the DeepSol protein solubility set
